{
  "source": "paper doi:10.1101/2025.05.03.652001",
  "molecular_target": "E. coli lipoic acid ligase (LplA) variant A48N on the W37V background (E. coli)",
  "assay": "SEC-SAXS; SEC-SAXS of purified LplA variant with lipoyl-AMS; DENSS ab initio envelope fitted with the major conformer; high protein concentrations required for SAXS; dimer model generated by AlphaFold3",
  "data": [
    {"substance": "E. coli lipoic acid ligase (LplA) variant A48N on the W37V background (enzyme)", "values": [
      {"measurement": "stoichiometry N", "result": 2}
    ]}
  ]
}
